{"source": "patent US7223596B2", "about": "“Malignant endothelial cell line and uses thereof in models for angiogenesis” (Wisconsin Alumni Research Foundation, priority 2003, dated 2007)", "molecules": {"B1": {"name": "Interleukin-12 (protein, UniProt P43431 23-215; P43432 23-335, looked up)", "Interleukin-12 subunit alpha": "RVIPVSGPARCLSQSRNLLKTTDDMVKTAREKLKHYSCTAEDIDHEDITRDQTSTLKTCLPLELHKNESCLATRETSSTTRGSCLPPQKTSLMMTLCLGSIYEDLKMYQTEFQAINAALQNHNHQQIILDKGMLVAIDELMQSLNHNGETLRQKPPVGEADPYRVKMKLCILLHAFSTRVVTINRVMGYLSSA", "Interleukin-12 subunit beta": "MWELEKDVYVVEVDWTPDAPGETVNLTCDTPEEDDITWTSDQRHGVIGSGKTLTITVKEFLDAGQYTCHKGGETLSHSHLLLHKKENGIWSTEILKNFKNKTFLKCEAPNYSGRFTCSWLVQRNMDLKFNIKSSSSSPDSRAVTCGMASLSAEKVTLDQRDYEKYSVSCQEDVTCPTAEETLPIELALEARQQNKYENYSTSFFIRDIIKPDPPKNLQMKPLKNSQVEVSWEYPDSWSTPHSYFSLKFFVRIQRKKEKMKETEEGCNQKGAFLVEKTSTEVQCKGGNVCVQAQDRYYNSSCSKWACVPCRVRS"}}, "key": {"SB-HSA tumors": {"test_system": "SB-HSA tumors", "test": "treatment of SB-HSA tumor-bearing mice (subcutaneous canine hemangiosarcoma xenograft)", "format": "in vivo", "conditions": "NOD-SCID mice injected s.c. with SB-HSA cells, vs PBS control", "protocol": "For example, IL-12 was also shown, to suppress the growth of canine hemangiosarcoma in vivo in this model. IL-12 is a cytokine with pleotropic effects including suppression of angiogenesis due to in vivo inhibition of endothelial cell growth. This activity is mediated by downstream chemokines such as IP-10 and Mig, which are induced by interferon-γ in response to IL-12. […] Control mice that were injected subcutaneously with SB-HSA cells and received phosphate buffered saline developed tumors at the site of cell inoculation by the second week that progressively enlarged over a 4-week observation period.\nCanine hemangiosarcoma xenografts were established in NOD-SCID mice by injection of 5×10^6 SB-HSA cells suspended in 200 μl PBS over the dorsum using a 26 gauge needle and tuberculin syringe. Mice were examined every other day until tumors were detected and measured with calipers. Animals were sacrificed when tumors reached a size of 1 cm^3.\nNOD-SCID mice were injected subcutaneously over the dorsum with SB-HSA cells (5×10^6 cells/200 μl). […] Pumps were designed to deliver 6 μl/day (1 μg IL-12/day for four weeks. The mice were examined every other day for tumor development. The two largest perpendicular diameters were measured with calipers."}, "[1]": {"test_system": "angiogenesis induced by SB-HSA cells", "test": "corneal pocket angiogenesis assay with sponges containing SB-HSA cells", "format": "in vivo", "conditions": "BALB/c mice, sponges with 70,000 SB-HSA cells in cornea; continuous subcutaneous infusion by osmotic pump from day 2; examined one week after treatment; vs PBS-treated control", "protocol": "IL-12 is a cytokine with both immunostimulatory and antiangiogenic effects. In these experiments, sponges containing 70,000 SB-HSA cells were placed into the corneas of BALB/c mice. Two days after placement of the sponges, the mice were randomized to receive either mrIL-12 or phosphate buffered saline. Each was delivered as a continuous subcutaneous infusion by subcutaneously implanted osmotic pumps. One week after treatment, mice were injected with FITC-dextran, euthanized and the corneas examined.\nPolyvinyl sponges (Rippey, Eldorado Hills, Calif.) preirradiated with 2000 Gy of gamma irradiation (cesium source) were cut into 4×4×2 mm pieces, and 70,000 SB-HSA cells were introduced into the sponges. BALB/c mice were anesthetized with AVERTIN and a small surgical micropocket was created in the center of the avascular cornea. Sponges were then inserted into the micropocket. Eyes were examined for neovascularization daily using an ophthalmic microscope (Carl Zeiss Inc, Thornwood, N.Y.). […] Phase contrast and fluorescence microscopy were used to visualize the general layout of the cornea and the presence of perfused blood vessels, respectively (Muthukkaruppan, V. and Auerbach, R. Science 1979 205:1416–1418)."}}, "data": [{"molecule": "B1", "values": [{"measurement": "growth of tumors", "setting": "SB-HSA tumors; continuous subcutaneous infusion 1 μg IL-12/day for four weeks", "value": "initially suppressed for two weeks followed by slower growth"}, {"measurement": "tumor size at end of observation period", "setting": "SB-HSA tumors; continuous subcutaneous infusion 1 μg IL-12/day, end of 4-week observation period", "value": "significantly smaller size"}, {"measurement": "corneal neovascularity", "setting": "[1]", "value": "significantly less corneal neovascularity"}]}]}
